# Laboratory results from IntAct's records for PubMed 27599036.
# B1: Ferrochelatase, mitochondrial (Homo sapiens), P22830 (parent)
# chain: MRSLGANMAAALRAAGVLLRDPLASSSWRVCQPWRWKSGAAAAAVTTETAQHAQGAKPQVQPQKRKPKTGILMLNMGGPETLGDVHDFLLRLFLDRDLMTLPIQNKLAPFIAKRRTPKIQEQYRRIGGGSPIKIWTSKQGEGMVKLLDELSPNTAPHKYYIGFRYVHPLTEEAIEEMERDGLERAIAFTQYPQYSCSTTGSSLNAIYRYYNQVGRKPTMKWSTIDRWPTHHLLIQCFADHILKELDHFPLEKRSEVVILFSAHSLPMSVVNRGDPYPQEVSATVQKVMERLEYCNPYRLVWQSKVGPMPWLGPQTDESIKGLCERGRKNILLVPIAFTSDHIETLYELDIEYSQVLAKECGVENIRRAESLNGNPLFSKALADLVHSHIQSNELCSKQLTLSCPLCVNPVCRETKSFFTSQQL
# Variants of: B1
# Settings: with pgrc1_human PGRMC1, O00264
# pgrc1_human PGRMC1, O00264, sequence (O00264 whole entry): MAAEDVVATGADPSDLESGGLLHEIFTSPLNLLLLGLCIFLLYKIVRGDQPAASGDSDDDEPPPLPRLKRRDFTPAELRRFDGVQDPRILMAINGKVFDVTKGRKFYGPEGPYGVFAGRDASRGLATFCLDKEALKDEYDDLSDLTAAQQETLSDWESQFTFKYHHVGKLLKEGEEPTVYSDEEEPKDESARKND
row,Variant,effect of a mutation on the interaction
1,E343K,disrupting interaction strength
2,F110A,increasing interaction strength
